The values below come from PMC6659671.

The target in assay [1] is HisBamA G781C (E. coli) (UniProt P0A940). The assay can be described thus: cross-linking; kinetics of intermolecular disulfide-bond formation in intact cells; 0.2 mM 4-DPS on ice for 0, 2, 5, 15, 30, 60 and 90 min; quantitated from αStrepII immunoblots.
For assay [2] the target is unchanged. The assay can be described thus: cross-linking.
Assay [3] concerns the target HisBamA S425C (E. coli) (UniProt P0A940). The assay can be described thus: cross-linking.

With MBP−76EspP A1043C (from UniProt Q7BSW5), in assay [1], the K (rate constant of disulfide-bond formation, single-step fit) came to 0.038 min⁻¹ and the half-time of disulfide-bond formation is 18.2 min. Besides, the percent disulfide-bond formation in assay [2] is 42%.
Take MBP−76EspP Y1298C (from UniProt Q7BSW5): the percent disulfide-bond formation in assay [3] was 28%.
